Experimental data as given in paper PMC2241857.

B1: 45AGR (recessed) (dsDNA)
DNA 1: GCCTCGCAGCCGTCCAACCAAC
DNA 2: GGACGGCATTGGATCGAGGTTGAGTTGGTTGGACGGCTGCGAGGC
modifications: template 5' phosphate
B2: 45AG1bpDNP (1-nt gapped, non-phosphorylated downstream) (dsDNA)
DNA 1: GCCTCGCAGCCGTCCAACCAAC
DNA 2: CAACCTCGATCCAATGCCGTCC
DNA 3: B1 DNA 2
modifications: no 5' phosphate on downstream oligo (S2); template 5' phosphate
B3: 45AG (1-nt gapped, 5'-phosphorylated downstream) (dsDNA)
DNA 1: GCCTCGCAGCCGTCCAACCAAC
DNA 2: CAACCTCGATCCAATGCCGTCC
DNA 3: B1 DNA 2
modifications: 5' phosphate on downstream oligo (S2) and template
B4: LPSD incised 5'-dRP substrate (UDG and APE1 treated) (dsDNA)
DNA 1: CTGCAGCTGATGCGC
DNA 2: GTACGGATCCCCGGGTAC
DNA 3: GTACCCGGGGATCCGTACGGCGCATCAGCTGCAG
modifications: uracil (position 16 of S8) removed by UDG; APE1 nick leaves 3'-OH and 5'-dRP on S8[17-34]

Columns and labels:
DNA polymerase beta L22P = DNA polymerase beta L22P (UniProt P06746 1-335, L22P); assay: EMSA
DNA polymerase beta WT [1] = molecular target: T1, DNA polymerase beta WT (UniProt P06746 1-335); assay: EMSA
DNA polymerase beta WT [2] = molecular target: T1, DNA polymerase beta WT; assay: NaBH4 trapping of Schiff base complex

Binder	Kd (DNA polymerase beta L22P) [nM]	Kd (DNA polymerase beta WT [1]) [nM]	binding result (DNA polymerase beta WT [2])
B1	455 ± 100	84 ± 18	–
B2	291 ± 45	20 ± 3	–
B3	229 ± 50	12 ± 2	–
B4	–	–	binds
